Assay results as given in patent publication US20240100176A1 (Eli Lilly, published 2024).
Blank lines part the entries; values can stand above or below the binder they belong to.

Assays:
[1] = molecular target: T1, human IL-4Rα on cells (human PBMC B cells and CD4+ T cells, Daudi cells, HEK-Blue IL-4/IL-13 cells, myeloid … (human, UniProt P24394 26-825)); experiment: cell-based or functional assay
T1 sequence: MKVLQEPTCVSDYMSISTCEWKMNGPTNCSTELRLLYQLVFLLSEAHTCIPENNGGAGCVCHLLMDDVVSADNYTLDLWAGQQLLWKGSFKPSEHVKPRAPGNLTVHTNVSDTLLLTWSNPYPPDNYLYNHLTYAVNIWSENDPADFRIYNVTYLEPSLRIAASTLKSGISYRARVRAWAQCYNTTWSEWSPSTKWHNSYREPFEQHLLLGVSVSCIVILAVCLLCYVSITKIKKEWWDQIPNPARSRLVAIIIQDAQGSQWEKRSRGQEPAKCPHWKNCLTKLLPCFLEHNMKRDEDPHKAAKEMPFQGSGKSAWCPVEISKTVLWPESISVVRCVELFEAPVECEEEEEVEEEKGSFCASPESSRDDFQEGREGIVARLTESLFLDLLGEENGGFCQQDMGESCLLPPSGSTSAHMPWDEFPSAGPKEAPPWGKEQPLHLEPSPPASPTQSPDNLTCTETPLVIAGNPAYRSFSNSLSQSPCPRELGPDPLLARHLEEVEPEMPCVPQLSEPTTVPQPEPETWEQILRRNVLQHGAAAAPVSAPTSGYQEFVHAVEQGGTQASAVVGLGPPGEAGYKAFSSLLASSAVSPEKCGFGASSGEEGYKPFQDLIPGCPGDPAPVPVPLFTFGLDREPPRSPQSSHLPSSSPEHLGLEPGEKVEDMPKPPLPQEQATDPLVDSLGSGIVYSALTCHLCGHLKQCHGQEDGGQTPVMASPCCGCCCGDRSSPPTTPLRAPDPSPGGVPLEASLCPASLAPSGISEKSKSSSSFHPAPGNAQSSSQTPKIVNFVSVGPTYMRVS

[2] = molecular target: T2, hexahistidine-tagged cynomolgus monkey IL-4Rα extracellular domain (cynomolgus monkey, UniProt P24394 26-231 (human entry)); experiment: competition MSD ELISA (solution equilibrium, 37 °C), apparent KD, single experiment
T2 construct: also called cynomolgus monkey IL-4Rα ECD; not shown: hexahistidine tag
T2 chain: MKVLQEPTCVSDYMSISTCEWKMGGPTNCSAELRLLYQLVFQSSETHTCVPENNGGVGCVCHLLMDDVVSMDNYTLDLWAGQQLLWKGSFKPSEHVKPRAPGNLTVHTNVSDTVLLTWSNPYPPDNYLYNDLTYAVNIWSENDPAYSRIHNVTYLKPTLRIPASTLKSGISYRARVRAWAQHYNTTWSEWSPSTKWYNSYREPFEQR
Experimental: Example 3a. […] A 96-well multi-array plate (Meso Scale Diagnostics, Cat. #L15XA-3) was coated at 4° C. overnight with 0.5 μg/mL hexahistidine-tagged human or cynomolgus monkey IL-4Rα ECD in phosphate buffered saline (PBS). Following coating, plates were washed 10 times with 200 μL PBST (PBS with 0.05% Tween® 20) and blocked with 300 μL/well of PBS casein blocking buffer (Pierce, Cat. #37528) at 37° C. for 1 hour. Plates were then washed 10 times as above, and 50 μL of the preincubated antibody:IL-4Rα dilution series was transferred to the wells and incubated at 37° C. with 300 rpm shaking for […]. Plates were washed 10 times with PBST, 50 μL of 1 μg/mL anti-human antibody sulfo-tag 20 (Meso Scale Diagnostics, Cat. #R32AJ-1) was added to the plates for the assay of Table 7a, and anti-Human NHP Kappa Light chain SULFO-TAG 20 (Meso Scale Diagnostics, Cat #D20TF-6) was added to the plates for the assay of Table 7b, and plates were incubated at 37° C. with 300 rpm shaking for 30 minutes. Plates were washed 10 times with PBST, 150 μL/well of 1× Read Buffer T was added to the wells and analyzed on a SECTOR® Imager 6000 (Meso Scale Diagnostics) 15 min after buffer addition. The apparent KD is determined by fitting a sigmoidal curve to the electrochemiluminescence (ECL) response vs. log (soluble IL-4Rα concentration) using GraphPad Prism 9. Data is graphed with normalized ECL values.

[3] = molecular target: T3, hexahistidine tagged human IL-4Rα ECD T108R (human, UniProt P24394 26-232); experiment: capture ELISA: Ab1 on anti-human IgG Fc, His-tagged receptor at 0.04 µg/mL, anti-His HRP
T3 construct: also called D108R; not shown: hexahistidine tag

[4] = molecular target: T4, human FcγRI (CD64) extracellular domain (human, UniProt P12314 16-292); experiment: SPR (Biacore), antibody captured on protein A, FcγR ECD as analyte, 25 °C
T4 construct: extracellular domain
Experimental: Unreacted sites were blocked with a 7 minute injection of ethanolamine at 10 μL/minute. Injections of 2×10 μL of glycine, pH 1.5, was used to remove any noncovalently associated protein. Running buffer was 1×HBS-EP+(TEKNOVA, P/N H8022). The FcγR extracellular domains (ECDs)-FcγRI (CD64), FcγRIIA_131R, and FcγRIIA_131H (CD32a), FcγRIIIA_158V, FcγRIIIA_158F (CD16a), and FcγRIIb (CD32b) were produced from stable CHO cell expression and purified using IgG Sepharose and size exclusion chromatography. For FcγRI binding, antibodies were diluted to […] in running buffer, and approximately 150 RU of each antibody was captured in FCs 2 through 4 (RU captured). FC1 was the reference FC, therefore no antibody was captured in FC1. […] Duplicate injections of each concentration were injected over all FCs at 40 μL/minute for 120 seconds followed by a 1200 second dissociation phase. Regeneration was performed by injecting 15 μL of 10 mM glycine, pH 1.5, at 30 μL/minute over all FCs. […] The affinity (KD) was calculated using either steady state equilibrium analysis with the Scrubber 2 Biacore Evaluation Software or a “1:1 (Langmuir) binding” model in BIA Evaluation. […] The affinity (KD) was calculated using the steady state equilibrium analysis with the Scrubber 2 Biacore Evaluation Software. […]

T4 sequence (P12314 16-292): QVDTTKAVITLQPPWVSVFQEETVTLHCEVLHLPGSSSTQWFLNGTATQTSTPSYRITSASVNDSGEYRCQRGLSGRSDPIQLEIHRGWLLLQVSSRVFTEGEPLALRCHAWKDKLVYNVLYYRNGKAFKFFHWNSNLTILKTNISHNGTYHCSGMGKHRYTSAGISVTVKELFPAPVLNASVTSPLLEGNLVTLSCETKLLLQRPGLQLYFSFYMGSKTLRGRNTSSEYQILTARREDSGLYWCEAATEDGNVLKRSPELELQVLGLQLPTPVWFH

IL-4 IC50 (nM): inhibition of IL-4 induced SEAP activity in HEK-Blue IL-4R and IL-13R expressing cells [1]: 0.08 nM
IL-13 IC50 (nM): inhibition of IL-13 induced SEAP activity in HEK-Blue IL-4R and IL-13R expressing cells [1]: 0.67 nM
Kd [2]: 0.0233 nM
ELISA (OD450) [3]: 1.41 OD450
B1: anti-human IL-4Rα antibody Ab1 (antibody, human IgG4 S228P, kappa)
heavy: QVQLVESGGGLVQPGGSLRLSCVASGFTFSHSSMNWVRQAPGKGLEWVSYISRATGAVYYADSVKGRFTISRDNAKNSLYLQMNSLRDEDTAVYYCAREPVFDYWGQGTLVTVSSASTKGPCVFPLAPCSRSTSESTAALGCLVKDYFPEPVTVSWNSGALTSGVHTFPAVLQSSGLYSLSSVVTVPSSSLGTKTYTCNVDHKPSNTKVDKRVESKYGPPCPPCPAPEFLGGPSVFLFPPKPKDTLMISRTPEVTCVVVDVSQEDPEVKFNWYVDGVEVHNAKTKPREEQFNSTYRVVSVLTVLHQDWLNGKEYKCKVSNKGLPSSIEKTISKAKGQPREPQVYTLPPSREEMTKNQVSLTCLVKGFYPSDICVEWESNGQPENNYKTTPPVLDSDGSFFLYSRLTVDKSRWQQGNVFSCSVMHEALHNHYTQKSLSLSLG
light: DIQMTQSPSAMSASVGDRVTITCRASQDISNYLAWFQQKPGKVPTRLIYAASSLQSGVPSRFSGSGSGTEFTLTISSLQPEDFATYYCLQWSSYPRTFGQGTKVEIKRTVAAPSVFIFPPSDEQLKSGTASVVCLLNNFYPREAKVQWKVDNALQSGNSQESVTEQDSKDSTYSLSSTLTLSKADYEKHKVYACEVTHQGLSSPVTKSFNRGEC
notes: human kappa light chain; also called anti-human IL-4Rα Ab1; unconjugated Ab1

Kd [4]: 0.64 nM
B2: anti-human IL-4Rα Ab1 GC conjugate of Example 1b (n=4) (antibody, human IgG4 S228P, kappa)
heavy: B1 heavy
light: B1 light
modifications: glucocorticoid receptor agonist payload-linker (GC-L, Preparation 8) conjugated to the engineered cysteines at the 124 and 378 position of the heavy chain (EU numbering); n is 4 (average DAR 4.17 by RP-HPLC, 3.85 by TOF MS)
